Data: patent US20130225506A1 (POLYPHOR, published 2013)
Square brackets hold non-standard residues; d marks the D form. Primed or numbered codes have the meaning given here. dPro(cis-4-NH2) = N[C@H]1CN[C@@H](C(=O)O)C1; dPro(4S-NH2) = N[C@@H]1CN[C@@H](C(=O)O)C1; 1Nal = N[C@@H](Cc1cccc2ccccc12)C(=O)O; 2Nal = N[C@@H](Cc1ccc2ccccc2c1)C(=O)O; Pro(3S-OH) = O=C(O)[C@H]1NCC[C@@H]1O; dCit = NC(=O)NCCC[C@@H](N)C(=O)O; Tic = O=C(O)[C@@H]1Cc2ccccc2CN1; Agb = N=C(N)NCC[C@H](N)C(=O)O; Agp = N=C(N)NC[C@H](N)C(=O)O; dPip′ = not defined here

B1: cyclo(-Ile-^DCit-Arg-Trp-^DPro-Thr-) (peptide)
peptide: cyclo(I[dCit]RW[dP]T)
SMILES: CC[C@H](C)[C@@H]1NC(=O)[C@H]([C@@H](C)O)NC(=O)[C@H]2CCCN2C(=O)[C@H](Cc2c[nH]c3ccccc23)NC(=O)[C@H](CCCNC(=N)N)NC(=O)[C@@H](CCCNC(N)=O)NC1=O
B2: cyclo(-Ile-^DArg-Arg-Trp-^DPro-Thr-) (peptide)
peptide: cyclo(I[dR]RW[dP]T)
SMILES: CC[C@H](C)[C@@H]1NC(=O)[C@H]([C@@H](C)O)NC(=O)[C@H]2CCCN2C(=O)[C@H](Cc2c[nH]c3ccccc23)NC(=O)[C@H](CCCNC(=N)N)NC(=O)[C@@H](CCCNC(=N)N)NC1=O
B3: cyclo(-Trp-^DPhe-Trp-Arg-^DPro((4R)NH2)-Tic-) (peptide)
peptide: cyclo(W[dF]WR[dPro(cis-4-NH2)][Tic])
SMILES: N=C(N)NCCC[C@@H]1NC(=O)[C@H](Cc2c[nH]c3ccccc23)NC(=O)[C@@H](Cc2ccccc2)NC(=O)[C@H](Cc2c[nH]c3ccccc23)NC(=O)[C@@H]2Cc3ccccc3CN2C(=O)[C@H]2C[C@@H](N)CN2C1=O
B4: cyclo(-1Nal-^DArg-Arg-Trp-^DPro-Thr-) (peptide)
peptide: cyclo([1Nal][dR]RW[dP]T)
SMILES: C[C@@H](O)[C@@H]1NC(=O)[C@H]2CCCN2C(=O)[C@H](Cc2c[nH]c3ccccc23)NC(=O)[C@H](CCCNC(=N)N)NC(=O)[C@@H](CCCNC(=N)N)NC(=O)[C@H](Cc2cccc3ccccc23)NC1=O
B5: cyclo(-Ile-^DArg-Arg-Tyr-^DPro-Thr-) (peptide)
peptide: cyclo(I[dR]RY[dP]T)
SMILES: CC[C@H](C)[C@@H]1NC(=O)[C@H]([C@@H](C)O)NC(=O)[C@H]2CCCN2C(=O)[C@H](Cc2ccc(O)cc2)NC(=O)[C@H](CCCNC(=N)N)NC(=O)[C@@H](CCCNC(=N)N)NC1=O
B6: cyclo(-Ile-^DArg-Arg-2Nal-^DPro-Thr-) (peptide)
peptide: cyclo(I[dR]R[2Nal][dP]T)
SMILES: CC[C@H](C)[C@@H]1NC(=O)[C@H]([C@@H](C)O)NC(=O)[C@H]2CCCN2C(=O)[C@H](Cc2ccc3ccccc3c2)NC(=O)[C@H](CCCNC(=N)N)NC(=O)[C@@H](CCCNC(=N)N)NC1=O
B7: cyclo(-Ile-^DHis-Arg-Trp-^DPro-Thr-) (peptide)
peptide: cyclo(I[dH]RW[dP]T)
SMILES: CC[C@H](C)[C@@H]1NC(=O)[C@H]([C@@H](C)O)NC(=O)[C@H]2CCCN2C(=O)[C@H](Cc2c[nH]c3ccccc23)NC(=O)[C@H](CCCNC(=N)N)NC(=O)[C@@H](Cc2c[nH]cn2)NC1=O
B8: cyclo(-Ile-^DArg-Trp-Arg-^DPro-Thr-) (peptide)
peptide: cyclo(I[dR]WR[dP]T)
SMILES: CC[C@H](C)[C@@H]1NC(=O)[C@H]([C@@H](C)O)NC(=O)[C@H]2CCCN2C(=O)[C@H](CCCNC(=N)N)NC(=O)[C@H](Cc2c[nH]c3ccccc23)NC(=O)[C@@H](CCCNC(=N)N)NC1=O
B9: cyclo(-Trp-^DPhe-Trp-Arg-^DPro((4S)NH2)-Tic-) (peptide)
peptide: cyclo(W[dF]WR[dPro(4S-NH2)][Tic])
SMILES: N=C(N)NCCC[C@@H]1NC(=O)[C@H](Cc2c[nH]c3ccccc23)NC(=O)[C@@H](Cc2ccccc2)NC(=O)[C@H](Cc2c[nH]c3ccccc23)NC(=O)[C@@H]2Cc3ccccc3CN2C(=O)[C@H]2C[C@H](N)CN2C1=O
B10: cyclo(-Trp-^DArg-Arg-Trp-^DPro-Thr-) (peptide)
peptide: cyclo(W[dR]RW[dP]T)
SMILES: C[C@@H](O)[C@@H]1NC(=O)[C@H]2CCCN2C(=O)[C@H](Cc2c[nH]c3ccccc23)NC(=O)[C@H](CCCNC(=N)N)NC(=O)[C@@H](CCCNC(=N)N)NC(=O)[C@H](Cc2c[nH]c3ccccc23)NC1=O
B11: cyclo(-Ile-^DArg-Agb-Trp-^DPro-Thr-) (peptide)
peptide: cyclo(I[dR][Agb]W[dP]T)
SMILES: CC[C@H](C)[C@@H]1NC(=O)[C@H]([C@@H](C)O)NC(=O)[C@H]2CCCN2C(=O)[C@H](Cc2c[nH]c3ccccc23)NC(=O)[C@H](CCNC(=N)N)NC(=O)[C@@H](CCCNC(=N)N)NC1=O
B12: cyclo(-Ile-^DLys-Arg-Trp-^DPro-Thr-) (peptide)
peptide: cyclo(I[dK]RW[dP]T)
SMILES: CC[C@H](C)[C@@H]1NC(=O)[C@H]([C@@H](C)O)NC(=O)[C@H]2CCCN2C(=O)[C@H](Cc2c[nH]c3ccccc23)NC(=O)[C@H](CCCNC(=N)N)NC(=O)[C@@H](CCCCN)NC1=O
B13: cyclo(-Ile-^DArg-Arg-Ile-^DPro-Thr-) (peptide)
peptide: cyclo(I[dR]RI[dP]T)
SMILES: CC[C@H](C)[C@@H]1NC(=O)[C@H]([C@@H](C)O)NC(=O)[C@H]2CCCN2C(=O)[C@H]([C@@H](C)CC)NC(=O)[C@H](CCCNC(=N)N)NC(=O)[C@@H](CCCNC(=N)N)NC1=O
B14: cyclo(-Thr-^DArg-Trp-Arg-^DPro-Thr-) (peptide)
peptide: cyclo(T[dR]WR[dP]T)
SMILES: C[C@@H](O)[C@@H]1NC(=O)[C@H]([C@@H](C)O)NC(=O)[C@H]2CCCN2C(=O)[C@H](CCCNC(=N)N)NC(=O)[C@H](Cc2c[nH]c3ccccc23)NC(=O)[C@@H](CCCNC(=N)N)NC1=O
B15: cyclo(-Ile-^DArg-Arg-1Nal-^DPro-Thr-) (peptide)
peptide: cyclo(I[dR]R[1Nal][dP]T)
SMILES: CC[C@H](C)[C@@H]1NC(=O)[C@H]([C@@H](C)O)NC(=O)[C@H]2CCCN2C(=O)[C@H](Cc2cccc3ccccc23)NC(=O)[C@H](CCCNC(=N)N)NC(=O)[C@@H](CCCNC(=N)N)NC1=O
B16: cyclo(-Ala-^DPhe-Trp-Arg-^DPro((4R)NH2)-Tic-) (peptide)
peptide: cyclo(A[dF]WR[dPro(cis-4-NH2)][Tic])
SMILES: C[C@@H]1NC(=O)[C@@H]2Cc3ccccc3CN2C(=O)[C@H]2C[C@@H](N)CN2C(=O)[C@H](CCCNC(=N)N)NC(=O)[C@H](Cc2c[nH]c3ccccc23)NC(=O)[C@@H](Cc2ccccc2)NC1=O
B17: cyclo(-Ile-^DArg-Agp-Trp-^DPro-Thr-) (peptide)
peptide: cyclo(I[dR][Agp]W[dP]T)
SMILES: CC[C@H](C)[C@@H]1NC(=O)[C@H]([C@@H](C)O)NC(=O)[C@H]2CCCN2C(=O)[C@H](Cc2c[nH]c3ccccc23)NC(=O)[C@H](CNC(=N)N)NC(=O)[C@@H](CCCNC(=N)N)NC1=O
B18: cyclo(-Ile-^DArg-Arg-Trp-^DPro-Ser-) (peptide)
peptide: cyclo(I[dR]RW[dP]S)
SMILES: CC[C@H](C)[C@@H]1NC(=O)[C@H](CO)NC(=O)[C@H]2CCCN2C(=O)[C@H](Cc2c[nH]c3ccccc23)NC(=O)[C@H](CCCNC(=N)N)NC(=O)[C@@H](CCCNC(=N)N)NC1=O
B19: cyclo(-Ile-^DArg-Arg-Trp-^DPro-Pro((3S)OH)-) (peptide)
peptide: cyclo(I[dR]RW[dP][Pro(3S-OH)])
SMILES: CC[C@H](C)[C@@H]1NC(=O)[C@@H]2[C@@H](O)CCN2C(=O)[C@H]2CCCN2C(=O)[C@H](Cc2c[nH]c3ccccc23)NC(=O)[C@H](CCCNC(=N)N)NC(=O)[C@@H](CCCNC(=N)N)NC1=O

Target: chemokine receptor CXCR7 (UniProt P25106 1-362, limits assumed)
Sequence (P25106 whole entry): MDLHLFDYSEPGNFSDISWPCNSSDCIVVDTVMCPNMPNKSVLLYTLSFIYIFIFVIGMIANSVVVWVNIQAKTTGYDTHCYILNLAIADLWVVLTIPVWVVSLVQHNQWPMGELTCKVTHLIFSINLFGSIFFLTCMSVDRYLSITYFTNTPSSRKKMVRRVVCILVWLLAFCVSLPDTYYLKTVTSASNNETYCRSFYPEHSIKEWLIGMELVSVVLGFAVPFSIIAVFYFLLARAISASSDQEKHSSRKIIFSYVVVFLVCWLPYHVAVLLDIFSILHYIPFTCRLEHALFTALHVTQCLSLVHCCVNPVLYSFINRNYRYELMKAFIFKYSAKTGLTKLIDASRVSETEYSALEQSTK
Assay: cell-based or functional assay

Binder	β-Arrestin EC50 [nM]
B1	472
B2	6.7
B3	6.1
B4	28.5
B5	83.7
cyclo(I[dR]RW[dPip′]T) [cyclo(-Ile-^DArg-Arg-Trp-^DPip-Thr-)]	0.1
B6	0.4
B7	546
B8	62.5
B9	17.5
B10	538
B11	22.3
B12	86.7
B13	79.7
B14	17.2
B15	17.9
B16	322
B17	90.5
B18	12.8
B19	123
